Assay: soluble on expression in E. coli; label from the status in PepcDB or PDB records

Row | Sequence | soluble on expression in E. coli
1 | MRGPAPMPDTSLSTFLARPAPTILVEIEAVKGSSPREAGTFMLVSQEALWETIGGGQFEYMAIDHARAMLRTGAAEDRMDIPLGPEIGQCCGGRTLIRFRLITAEIAATLEARLKGEAEQQPAVFIFGAGHVGKALADALSLLPLTLKVVETRESELRDIPAGIASILTPMPEAFVQKIPANGAAIIVTHDHALDFLIAKEALARDDLAYVGMIGSKTKRATFAHWLEREGEPPSRLAKLTLPIGGTGVRDKRPAVIAALVAAELLQAFSVAETRRSENRHDHPQGQDRA | not soluble
2 | MGSDKIHHHHHHMTETLVQVQKLAMDFPGQKLFNNLSFDVDRRDFLSIIGENGVGKTTLIRALLNQVKPTSGSIKFRKGTKVGYVPQFRNIERDYPLSIRDFVALNLQNGKMPWLSKMERTQLDEILEETDLVDIQNTRIGRASGGQKQKAYLAQALVDNPDLLILDESTASLDTVRKYELFNLVQHFNQQHDLTVISVTHDFDLMQRYSNRYLMLKEDHYALGEVADIKNEEDLLDV | not soluble
3 | SVTASRYYPQLMSLVGNVLRFLPAFVRMKQLISEHYVGAVMICDARIYSGSLLSPSYGWICDELMGGGGLHTMGTYIVDLLTHLTGRRAEKVHGLLKTFVRQNAAIRGIRHVTSDDFCFFQMLMGGGVCSTVTLNFNMPGAFVHEVMVVGSAGRLVARGADLYGQKNSATQEELLLRDSLAVGAGLPEQGPQDVPLLYLKGMVYMVQALRQSFQGQGDRRTWDRTPVSMAASFEDGLYMQSVVDAIKRSSRSGEWEAVEVLTEEPDTNQNLCEALQRNNL | soluble
4 | MGSDKIHHHHHHMTTLNSEKVFRDPILGFIHVDDSIILDLINSHEMQRLRRIKHLGVANSVFHGGEQSRFQHSLGVYEISRRMIQALDDNEKFANERHWDHENDLLVQAAALLHDVGHGAYSHTFEHLFDTVHEQFTQKIIVDPSTEVNAILKTVSNDFPERVAAVIGKSYPDKRVVQLISSQLDADRMDYLLRDAYYTGAEYGRYDIERILRLMRPIKDGFAFDIAGVHSIEDYVISRYQMYLQVYFHPVSRGMEVVLENLLIRAQDIFDKDPDNPIFFPIIRPIFALKNKIDIQDYISLDDSVFNTAFNIWQKVDDKILADLSKRFLDRKPLKSIVLNEKTKDLIPSLRKKIKDRGFDPKYYTGENDATDLPYESYSPKTGEEGIKFVYPDGQQVELSKLSPLVEAINGKESIDRRFFFPREMLSNPEINQLYLKYKKTY | not soluble
5 | MTFIKRLEDAYETLLGNYPAGVSSTSTSKYNEIRKIVSEAFLIGENEVYVTGTSRRISNLDTRFAQGNQRNKHTRMAVAFISIPSVDDSELDELIIRTRNSAITTSSKFCNGEERGTIFDGILLFLVFEGETKVYPLAFLVFENDFELKEKAEELIPGIELKEYPRANQSPAQENNKSAKNEDEESAKSYVVFLDIEEDGSIVEFVEDKDKTYRIGDMIWTASHTNGSSAITRRLEVIEVVENLVVCKIKHKYNEPVDKNSLLKFVNIEQDLISFLDLHPNVQNGSEGFVSGDIVDENATTSSDDLPEDFENN | not soluble
6 | MGSDKIHHHHHHARDTLFVNLTDATDSQSLKLSDFGNTVRYVPLETNEVCLIGNNPHIALLEDKIVIATKDQCFLFHKQTGKYICSIGHIGDDPSGYSSTNYWIDDAGLFYFFRAPDQLLKYNQKGEMTGKIQIPHIPAAPDFFAFSDSTIIAHCNSSIGLESSNSLLFLNSFGEKLDSIPNLLKSPSIPSPDNISSLSIIKRGAGFFGNLGRRGVMIIKDKEQGELLLPLYNPSLWSSENEVRFRETFTDTIYTIKNRKLYPYMVFHTDTDHSSANPLWYSNPQSIYVAYVLENTHSVFFQYVKNKQVYNGLYNKETQQTKFAKCQQFIVDDLTSEQELKVDLSALCSYKGEYGFILEAASIPDASQKQSDNKNENIPHWMSQLDEDANPVIAIVSDK | not soluble
7 | SLDKIEHIGIAVKNLEAGNSLYEKLMGVPHYKIEEVASEGVRTSFFKTGPNKIELLEATNDDSAIAKFIEKKGEGIHHIAFAVENIVEEMERLKKEGFIILNEKPKKGADNKLVAFVHPKTAGGVLIELCQEINEG | soluble
8 | MKHLPQLEGVSVGLEGEAVSLFWGEIKEEERQEIYECAKALVPWRKGPFWVGDFLIDSEWVSAKKYALLEPHFDLCNKDVADIGCNNGYYMFRMWGQKPKSLTGFDPSPLCRTQFDFINHFIQAPIRFELLGVEHLEGYGKLFDVIFCLGVLYHRSDPIQTLKSLYKGLAKGGELLLDTLMIEGEEEVALTPKDRYAKMSNVYFIPTFKALSHWLHRAGFERVEKLEIAKTGLDEQRKTEWINSQSLEDFLDPCSHDRTIEGYPAPRRIYVKAYKGA | not soluble
9 | MNANVYQHFRKDEHPFIDTVGDWLEQVEMQYAPYLTDFLDPRQAYILETLIRQNSDLSFTFYGGYEQAERKRCLIYPAYYIPEETDFGVVLFEIIYPSKFATLSHGKILGTLMNVGVRREAFGDIISDGDKWQVFIAQEVAGFVVNQVDKIGKITVRLEERDYTQILIPKDGWQEERTTMSSLRLDSVISAVFNISRQRSKQLIESGKVKVNWTETTRPDFALDLLDIVSIRGFGRLQIQELEGKTKKEKFRVLLGVLRK | not soluble
10 | MAAGTFTAQNKVRPGVYINFKSEPQAAGTLGERGIVSMPLILSWGEPGKMITIEAGDDVFPKLGYSIMDAQLRLINEALKRAKTLLLYRLNAGTKAAVTVGNLTVTAKWGGARGNDITLVIQENIDDETKFDVSTLVDGAELDKQTVSDIAGLAANDWVIFSGTGALTETAGAPLINGSDGAVTNQAYIDYLAAVEIFDFNTIALPSTDDALKATFTAFAKRLRDDEGKKIQVVLENYPAADYEGVISVKNGVVLADGTILTAAQATAWVAGATAGARVNESLTYQGYDEAVDVAPRYTNAQIIAALQAGEFLFTASDNQALVEQDINTLTSFTADKGKQFAKNRVIRVLDGINNDFVRIFSKFYIGKVSNNADGRNLLKSECINYMNTLQDIDAIKNFDGQTDLTVQSGNDVDAVYIEAYAWPVDSIEKIYVRVRIKLEHHHHHH | soluble
11 | MVKLLTINSHSWMEEDPQKKLEILGKTILENDYDVICVQEVNQLLHSEPAKDLPNYCQVAGTPAIHKDNYALQLVTFLLEQERVYYWSWAYNHIGYDRFQEGVAILSKTPLVSQGILISDVDDEHDYHTRRALLGKTKIDQEDIAIVSLHMSWWNKGFQGEWNKLERVLSNLKLPLLLMGDFNNPYENEGYQAILKSSLKLQDSHQSAKITYGKATIQKEIDGWQGNQEALKVDYVFLSSDWQVEKSEVIFDGKHYPMISDHCGLACQANLNK | not soluble
12 | MSPLSSGLLGDLDPTSDRAVFRQIADQLREAIDRGRFREGEKLPSEAELVDHYGVSRMTVRNSFSILQGEGLVHAEHGKGVFVRPRPPVRRLASDRFARRHREQGKSAFIVEADAVGSHPKVDSLEVKEEKASQDISTRLGSVRRVLARRRRYLLDGRPVEFATSYLPLDIARGTQIAEPNPGPGGIYARLEELGHRLDHFEEEIRARMPSPAEVKTLHLAAGVPVIHLIRTAFDTEGRAVEVCDTVMAADAYVLSYQLPAT | not soluble
13 | MPELSPLTYGHTDARLILRVGGSMGDVYGQRLLKRDLNGYILNEEGVGLAMENKETYLGSILPKMNMGWSLGFGYKGVNLGMTFTGRFGGIVISETQSVLDAAGVSKVSADVRDAGGVQINQSKVSAQTYYQTIQGTAAYYTYSATNVRLGELSLSYTLPKKWFDNKVGMTVGLVGKNLWMIYCKAPFDPELTTSAASNFYQGFDAYMLPSTRNFGFNVKFQF | not soluble
14 | MKEVMLFPLTSVVLPEGKMNLRIFEPRYKRMVKECSLQNVGFGVCLVGSEGDPKDVGNVSSIGTLVRIVDFETLSDGLLGITVAGEKRFVIKRVRADSDGLRHAEVEWLDNWQTPSQQLDFGYLSQQLAQVYEQFPQLGTLYQHRFYDDPIWVTQRWLELLPLDSHLFESLVGAQDCRPALRFLNQAIEAPSNKEARILEHHHHHH | soluble
15 | HGSSTVDELTAAFTGGAATGEGGLTLTAPEIAENGNTVPIEVKAPGAVAIMLLAAGNPEPAVATFNFGPAAADQRAATRIRLAQTQDVIALAKMADGSVVKAQTTVKVTIGGCGG | soluble
16 | MAHHHHHHMGDFALISMNGDRVFISLDPVFTSQSLWLQAAEGLGEREGVVPIASTETLHNLVEYMAFQAKRMAGVAEGECKGGQTVTLPISCTTCSGSGGLGYDVHSLLPDHDIAFLDRFGGTGGVWEVEQQEKLMELMATADFVGHGRLSRLCAVYISCRLMSATESDILSWFSVCGDRCGGVASADPEADDGNRAGERVLRDAERLRILNQMRKYIEIED | not soluble
17 | MSLGAYLSEPLTTKDSSDESNEFLASGSSSMQGWRISQEDAHNCILNFDDQCSFFAVYDGHGGAEVAQYCSLHLPTFLKTVEAYGRKEFEKALKEAFLGFDATLLQEKVIEELKVLSGDSAGSDAEPGKDSGCTAVVALLHGKDLYVANAGDSRCVVCRNGKALEMSFDHKPEDTVEYQRIEKAGGRVTLDGRVNGGLNLSRAIGDHGYKMNKSLPAEEQMISALPDIEKITVGPEDEFMVLACDGIWNFMTSEQVVQFVQERINKPGMKLSKICEELFDHCLAPHTRGDGTGCDNMTAIIVQFKEGHHHHHH | soluble
18 | NGSQQQILSNISSMGTNTIDVRPGKGFGDRRSGRVKTLTADDAKSLESLPFVDSVTPSLSNSLTVRYANQDATASVEGVGEDYFRVRGYEIAKGQFWDEESVNSLAQEAVIDDNTRKEMFADRNP | not soluble
19 | MGSDKIHHHHHHMYSCYNNFVKYALTMQFDIEVDVMYEVKLDAFNGPLDLLLHLIQKYEIDIYDIPMKALTEQYMQYVHAMNQLEINVASEYLVMASELLMIKSKLLLPQTSIEEDIEEDPREDLVGRLIEYQNYKEYTEILNTMKEERDLYFTKHPTDLTHLETNESWDPNQTIDLTELIVAYQRVKNRVELNTPKSVEIKKETFTIQQATAQVTERLKQHESFNFFSLFTFHEPVEQVVTHFLAILEMSKSGIVNIKQTKQFDDIDIIRGVNYSIG | not soluble
20 | MSLILVTGAAGFIGSHLCEQLLMNEKVSVVGVDGHIDSSLCKVKERNVRNLLKHPRFTLLKQDLLTIDLEPLVDQVDVIYHLSGIPGVRSSWGTDFKKYVTHNIVATQQLLEACRRHSLEKFIYISTSSVYGQKNGKVGEKASPTPLSPYGVSKLTGEHLCNVYYRNFSIPTVILRYFTVYGPRQRQDMAFHRFIKAIIDNQPIPIFGDGNQSRDFTYIDDCIAATCAVLHADVIGETINIGGKERATVLQIISMLESIFQKDAKLQFLEKPFGEPMSTWADISKAEKLLRYSPNVPLLQGIEKEVDEGHHHHHH | soluble
21 | MIYEIKFAHGESNVFAISDIELAPQTEVILRSDKGNFYGKIVREISEEANLEIHHTIVREVNEDDLQVIAKLEERSKQAKDKVRQLVIEQGLEMKIIDVAYNFDQMQLFISFTAENRVDFRLLLRELATTFRIRIELRQIGPRDAAKIHGGLGPCGRPLCCSEFVYEFPNVSIKMAKNQNLSLKQNKLNGLCGRLMCCLTYEDSFYKEAQQLFPDFGEFVTTSEGKGKVVGLNVLKNRVKIRFGEYSKDFELAEIEVNHGLEHHHHHH | soluble
22 | SNAMVKDRQIQKTKVAIYNAFISLLQENDYSKITVQDVIGLANVGRSTFYSHYESKEVLLKELCEDLFHHLFKQGRDVTFEEYLVHILKHFEQNQDSIATLLLSDDPYFLLRFRSELEHDVYPRLREEYITKVDIPEDFLKQFLLSSFIETLKWWLHQRQKMTVEDLLKYYLTMVER | soluble
